Assay results from publication PMC5778138, “Interaction of the Morphogenic Protein RodZ with the Bacillus subtilis Min System” (Frontiers in Microbiology, 2017).

Biological target: T1, His-tagged cytosolic part of MinJ, fluorescently labeled (B. subtilis, labeled with the amine-reactive red fluorescent dye NT-647 NHS)
T1 chain: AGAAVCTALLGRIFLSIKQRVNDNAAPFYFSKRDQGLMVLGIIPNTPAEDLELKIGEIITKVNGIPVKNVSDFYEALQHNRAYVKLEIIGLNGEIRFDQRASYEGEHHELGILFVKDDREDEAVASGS
Experiment: MST; NT-647-labeled His-cyt-MinJ at 34 μM, cyt-RodZ titrated from 6.7 nM to 221 μM in 16 capillaries; Monolith NT.115; the methods call the Kd preliminary
Conditions: both partners purified

B1: His-tagged cytosolic part of RodZ (domain or fragment)
chain: VTELGIRLKEAREEKAMSLDDLQAATKIQKRYLTALEEGNYDIIPGKFYVRAFIKQYAEAVGLDADQLFEEHKKDIPNTYHDDVSEKISGMNLQKEMPKPASKALE
Kd: 5.1 ± 0.6 µM
